# Biological target: human CD137 expressed on cells (Jurkat human CD137 NF-kB luciferase reporter cells; human CD8+ T cells) (human, UniProt Q07011 24-255)
# Assay: cell-based or functional assay
row,Binder,Jurkat-CD137/CHO-PD-1 Reporter Assay EC50 [nM]
1,TPP-942: PDA-6GS-172E1-13-6GS-HSA2-2-His (bispecific antibody) EVQLVESGGGLVQPGRSLRLSCAASGFTFDDYALHWVRQAPGKDLEWVSGISWNGGSYGYADSVKGRFTISRDNAKNSLYLQMNSLRAEDTALYYCVREKGPGLTGSTADYYGLDAWGQGTMVTVSSGGGGSGGGGSGGGGSGGGGSGGGGSGGGGSEVQLVESGGGVVQPGGSLRLSCAASGFTFSNYGMHWVRQAPGKGLEWVAVISNDGNTKTYADSVKGRFTISRDNSKNTLYLQMNSLRAEDTAVYYCAQDETTTVTASYYFDYWGQGTLVTVSSGGGGSGGGGSGGGGSGGGGSGGGGSGGGGSEVQLVESGGGLVKPGGSLRLSCAASGFTFSNYNMNWVRQAPGKGLEWVSSISSAGTHIYYADSVKGRFTISRDNAKNSLYLQMNSLRAEDTAVYYCARDPHSTGWYKDFDYWGQGTLVTVSSAAAHHHHHH,57.4
2,TPP-1014: CD137A-6GS-PDA-6GS-HSA-His (bispecific antibody) EVQLVESGGGLVQPGGSLRLSCAASGFTLSNYWMNWVRQAPGKGLEWVANINQDGSERYYVDSVKGRFTISRDNAKNSLYLQMNSLRAEDTAVYYCARGGEGYGVDHYGLDVSGQGTTVTVSSGGGGSGGGGSGGGGSGGGGSGGGGSGGGGSEVQLVESGGGLVQPGRSLRLSCAASGFTFDDYALHWVRQAPGKDLEWVSGISWNGGSYGYADSVKGRFTISRDNAKNSLYLQMNSLRAEDTALYYCVREKGPGLTGSTADYYGLDAWGQGTMVTVSSGGGGSGGGGSGGGGSGGGGSGGGGSGGGGSEVQLVESGGGLVQPGRSLRLSCAASGFTFHHYAMHWVRQAPGKGLEWVSGISWNGNKITYADSVKGRFTISRDNAKNSLYLQMNSLRAEDTALYYCVRDSSLFIVGAPTFEHWGRGTLVTVSSAAAHHHHHH,0.548
3,TPP-943: PDA-6GS-172E1-13-6GS-HSA2-His (bispecific antibody) EVQLVESGGGLVQPGRSLRLSCAASGFTFDDYALHWVRQAPGKDLEWVSGISWNGGSYGYADSVKGRFTISRDNAKNSLYLQMNSLRAEDTALYYCVREKGPGLTGSTADYYGLDAWGQGTMVTVSSGGGGSGGGGSGGGGSGGGGSGGGGSGGGGSEVQLVESGGGVVQPGGSLRLSCAASGFTFSNYGMHWVRQAPGKGLEWVAVISNDGNTKTYADSVKGRFTISRDNSKNTLYLQMNSLRAEDTAVYYCAQDETTTVTASYYFDYWGQGTLVTVSSGGGGSGGGGSGGGGSGGGGSGGGGSGGGGSEVQLLESGGGLVKPGGSLRLSCAASGFTVSSYTMNWVRQAPGKGLEWVSSISSSGRYIYYADSVKGRFTISRDNAKNSLYLQMNSLRAEDTAVYYCARDPRMVGNPHEFDIWGQGTMVTVSSAAAHHHHHH,25.7
4,TPP-1017: CD137A-6GS-PD138G7(G109D)-6GS-HSA2-His (bispecific antibody) EVQLVESGGGLVQPGGSLRLSCAASGFTLSNYWMNWVRQAPGKGLEWVANINQDGSERYYVDSVKGRFTISRDNAKNSLYLQMNSLRAEDTAVYYCARGGEGYGVDHYGLDVSGQGTTVTVSSGGGGSGGGGSGGGGSGGGGSGGGGSGGGGSEVQLVESGGGVVRPGGSLRLSCAASGFTFDDYAMSWVRQAPGKGLEWVSGITWNGGSTGYADSVKDRFTISRDNAKNSLYLQMNSLRAEDTALYYCVRDKYSYAWSYDDFDIWGQGTMVTVSSGGGGSGGGGSGGGGSGGGGSGGGGSGGGGSEVQLVESGGGLVKPGGSLRLSCAASGFTFSNYNMNWVRQAPGKGLEWVSSISSAGTHIYYADSVKGRFTISRDNAKNSLYLQMNSLRAEDTAVYYCARDPHSTGWYKDFDYWGQGTLVTVSSAAAHHHHHH,0.21
5,TPP-1015: CD137A-6GS-PDA2-6GS-HSA3-His (bispecific antibody) EVQLVESGGGLVQPGGSLRLSCAASGFTLSNYWMNWVRQAPGKGLEWVANINQDGSERYYVDSVKGRFTISRDNAKNSLYLQMNSLRAEDTAVYYCARGGEGYGVDHYGLDVSGQGTTVTVSSGGGGSGGGGSGGGGSGGGGSGGGGSGGGGSEVQLVESGGGVVRPGGSLRLSCAASGFTFDDYAMSWVRQAPGKGLEWVSGITWNAGSTGYADSVKGRFTISRDNAKNSLYLQMNSLRAEDTALYYCVRDKYSYAWSYDDFDIWGQGTMVTVSSGGGGSGGGGSGGGGSGGGGSGGGGSGGGGSEVQLLESGGGLVKPGGSLRLSCAASGFTVSSYTMNWVRQAPGKGLEWVSSISSSGRYIYYADSVKGRFTISRDNAKNSLYLQMNSLRAEDTAVYYCARDPRMVGNPHEFDIWGQGTMVTVSSAAAHHHHHH,0.507
6,TPP-950: PDA2-6GS-172E1-13-6GS-HSA2-His (bispecific antibody) EVQLVESGGGVVRPGGSLRLSCAASGFTFDDYAMSWVRQAPGKGLEWVSGITWNAGSTGYADSVKGRFTISRDNAKNSLYLQMNSLRAEDTALYYCVRDKYSYAWSYDDFDIWGQGTMVTVSSGGGGSGGGGSGGGGSGGGGSGGGGSGGGGSEVQLVESGGGVVQPGGSLRLSCAASGFTFSNYGMHWVRQAPGKGLEWVAVISNDGNTKTYADSVKGRFTISRDNSKNTLYLQMNSLRAEDTAVYYCAQDETTTVTASYYFDYWGQGTLVTVSSGGGGSGGGGSGGGGSGGGGSGGGGSGGGGSEVQLVESGGGLVKPGGSLRLSCAASGFTFSNYNMNWVRQAPGKGLEWVSSISSAGTHIYYADSVKGRFTISRDNAKNSLYLQMNSLRAEDTAVYYCARDPHSTGWYKDFDYWGQGTLVTVSSAAAHHHHHH,43
7,TPP-1016: CD137A-6GS-PDA2-6GS-HSA1-His (bispecific antibody) EVQLVESGGGLVQPGGSLRLSCAASGFTLSNYWMNWVRQAPGKGLEWVANINQDGSERYYVDSVKGRFTISRDNAKNSLYLQMNSLRAEDTAVYYCARGGEGYGVDHYGLDVSGQGTTVTVSSGGGGSGGGGSGGGGSGGGGSGGGGSGGGGSEVQLVESGGGVVRPGGSLRLSCAASGFTFDDYAMSWVRQAPGKGLEWVSGITWNAGSTGYADSVKGRFTISRDNAKNSLYLQMNSLRAEDTALYYCVRDKYSYAWSYDDFDIWGQGTMVTVSSGGGGSGGGGSGGGGSGGGGSGGGGSGGGGSEVQLVESGGGLVQPGRSLRLSCAASGFTFHHYAMHWVRQAPGKGLEWVSGISWNGNKITYADSVKGRFTISRDNAKNSLYLQMNSLRAEDTALYYCVRDSSLFIVGAPTFEHWGRGTLVTVSSAAAHHHHHH,0.698

# Next, values leading:
row,Jurkat-CD137/CHO-PD-1 Reporter Assay EC50 [nM],Binder
1,0.0323,TPP-1294 PDBlocker1.92-6GS-CD137A-7-6GS-HSA3 (bispecific antibody) EVQLVESGGGLVKPGGSLRLSCAASGFTFSDESMTWMRQAPGKGLEWVSYISSGGGVKFYADSVKGRFTISRDNAKNSLYLQMNSLRAEDTAVYYCAREAPLRLGESPHDAFDISGQGTMVTVSSGGGGSGGGGSGGGGSGGGGSGGGGSGGGGSEVQLVESGGGLVQPGGSLRLSCAASGFTLSNYWMNWVRQAPGKGLEWVANINQDGSERYYVDSVKGRFTISRDNAKNSLYLQMNSLRAEDTAVYYCARGGEGYGVDHYGLDVSGQGTTVTVSSGGGGSGGGGSGGGGSGGGGSGGGGSGGGGSEVQLLESGGGLVKPGGSLRLSCAASGFTVSSYTMNWVRQAPGKGLEWVSSISSSGRYIYYADSVKGRFTISRDNAKNSLYLQMNSLRAEDTAVYYCARDPRMVGNPHEFDIWGQGTMVTVSS
2,0.437,TPP-1023: CD137A-6GS-HSA3-6GS-PDA-His (bispecific antibody) EVQLVESGGGLVQPGGSLRLSCAASGFTLSNYWMNWVRQAPGKGLEWVANINQDGSERYYVDSVKGRFTISRDNAKNSLYLQMNSLRAEDTAVYYCARGGEGYGVDHYGLDVSGQGTTVTVSSGGGGSGGGGSGGGGSGGGGSGGGGSGGGGSEVQLLESGGGLVKPGGSLRLSCAASGFTVSSYTMNWVRQAPGKGLEWVSSISSSGRYIYYADSVKGRFTISRDNAKNSLYLQMNSLRAEDTAVYYCARDPRMVGNPHEFDIWGQGTMVTVSSGGGGSGGGGSGGGGSGGGGSGGGGSGGGGSEVQLVESGGGLVQPGRSLRLSCAASGFTFDDYALHWVRQAPGKDLEWVSGISWNGGSYGYADSVKGRFTISRDNAKNSLYLQMNSLRAEDTALYYCVREKGPGLTGSTADYYGLDAWGQGTMVTVSSAAAHHHHHH
3,0.0809,TPP-1291 PD138G7(G109D)-6GS-CD137A-6GS-HSA1943 (bispecific antibody) EVQLVESGGGVVRPGGSLRLSCAASGFTFDDYAMSWVRQAPGKGLEWVSGITWNGGSTGYADSVKDRFTISRDNAKNSLYLQMNSLRAEDTALYYCVRDKYSYAWSYDDFDIWGQGTMVTVSSGGGGSGGGGSGGGGSGGGGSGGGGSGGGGSEVQLVESGGGLVQPGGSLRLSCASGFTLSNYWMNWVRQAPGKGLEWVANINQDGSERYYVDSVKGRFTISRDNAKNSLYLQMNSLRAEDTAVYYCARGGEGYGVDHYGLDVSGQGTTVTVSSGGGGSGGGGSGGGGSGGGGSGGGGSGGGGSEVQLLESGGGLVKPGGSLRLSCAASGFTVSSYTMNWVRQAPGKGLEWVSSISSSGRYIYYADSVKGRFTISRDNAKNSLYLQMNSLRAEDTAVYYCARDPRMVGNPHEFDIWGQGTMVTVSS
4,0.509,TPP-1025: CD137A-6GS-HSA3-2-6GS-PDA2-His (bispecific antibody) EVQLVESGGGLVQPGGSLRLSCAASGFTLSNYWMNWVRQAPGKGLEWVANINQDGSERYYVDSVKGRFTISRDNAKNSLYLQMNSLRAEDTAVYYCARGGEGYGVDHYGLDVSGQGTTVTVSSGGGGSGGGGSGGGGSGGGGSGGGGSGGGGSEVQLLESGGGLVKPGGSLRLSCAASGFTVSSYTMNWVRQAPGKGLEWVSSISSSGRYIYYADSVKGRFTISRDNAKNSLYLQMNSLRAEDTAVYYCARDPRMVGNPHEFDIWGQGTMVTVSSGGGGSGGGGSGGGGSGGGGSGGGGSGGGGSEVQLVESGGGVVRPGGSLRLSCAASGFTFDDYAMSWVRQAPGKGLEWVSGITWNAGSTGYADSVKGRFTISRDNAKNSLYLQMNSLRAEDTALYYCVRDKYSYAWSYDDFDIWGQGTMVTVSSAAAHHHHHH
5,3.26,TPP-1052: PDA2-6GS-HSA3-6GS-CD137D-His (bispecific antibody) EVQLVESGGGVVRPGGSLRLSCAASGFTFDDYAMSWVRQAPGKGLEWVSGITWNAGSTGYADSVKGRFTISRDNAKNSLYLQMNSLRAEDTALYYCVRDKYSYAWSYDDFDIWGQGTMVTVSSGGGGSGGGGSGGGGSGGGGSGGGGSGGGGSEVQLLESGGGLVKPGGSLRLSCAASGFTVSSYTMNWVRQAPGKGLEWVSSISSSGRYIYYADSVKGRFTISRDNAKNSLYLQMNSLRAEDTAVYYCARDPRMVGNPHEFDIWGQGTMVTVSSGGGGSGGGGSGGGGSGGGGSGGGGSGGGGSEVQLVESGGGVVQPGGSLRLSCAASGFTFSNYGMHWVRQAPGKGLEWVAVISNDGNTKTYADSVKGRFTISRDNSKNTLYLQMNSLRAEDTAVYYCAQDETTTVTASYYFDYWGQGTLVTVSSAAAHHHHHH
6,0.273,TPP-1018: CD137A-6GS-PD138G7(G109D)-6GS-HSA3-His (bispecific antibody) EVQLVESGGGLVQPGGSLRLSCAASGFTLSNYWMNWVRQAPGKGLEWVANINQDGSERYYVDSVKGRFTISRDNAKNSLYLQMNSLRAEDTAVYYCARGGEGYGVDHYGLDVSGQGTTVTVSSGGGGSGGGGSGGGGSGGGGSGGGGSGGGGSEVQLVESGGGVVRPGGSLRLSCAASGFTFDDYAMSWVRQAPGKGLEWVSGITWNGGSTGYADSVKDRFTISRDNAKNSLYLQMNSLRAEDTALYYCVRDKYSYAWSYDDFDIWGQGTMVTVSSGGGGSGGGGSGGGGSGGGGSGGGGSGGGGSEVQLLESGGGLVKPGGSLRLSCAASGFTVSSYTMNWVRQAPGKGLEWVSSISSSGRYIYYADSVKGRFTISRDNAKNSLYLQMNSLRAEDTAVYYCARDPRMVGNPHEFDIWGQGTMVTVSSAAAHHHHHH

# From patent US20220220215A1 (CRESCENDO BIOLOGICS, published 2022)
